Data reported in the Immune Epitope Database (IEDB).
Values belong to the sequence of their own block, whether it stands above or below them.

Columns and labels:
HLA-B*51:01 [1] = assay: IEDB peptide-MHC binding, purified MHC/competitive/radioactivity; filed as Kd, often an IC50 or EC50 that approximates it; ≥ and ≤ were set here for values at or beyond the usual limits of such assays
HLA-B*54:01 = assay: as above
HLA-B*07:02 [2] = assay: as above
HLA-B*35:01 [3] = assay: as above
HLA-B*53:01 = assay: as above
HLA-B*18:01 = assay: IEDB peptide-MHC binding, purified MHC/direct/fluorescence; filed as Kd, often an IC50 or EC50 that approximates it; ≥ and ≤ were set here for values at or beyond the usual limits of such assays; conditions: source organism: Yellow fever virus 17D
HLA-B*83:01 = assay: IEDB peptide-MHC binding, purified MHC/competitive/fluorescence; filed as Kd, often an IC50 or EC50 that approximates it; ≥ and ≤ were set here for values at or beyond the usual limits of such assays
HLA-B*45:06 = assay: as above
HLA-B*15:42 = assay: as above
HLA-B*57:01 = assay: IEDB peptide-MHC binding, purified MHC/direct/fluorescence; filed as Kd, often an IC50 or EC50 that approximates it; ≥ and ≤ were set here for values at or beyond the usual limits of such assays; conditions: source organism: Francisella tularensis subsp. holarctica LVS
HLA-B*58:01 = assay: as above; conditions: source organism: Francisella tularensis subsp. holarctica LVS
HLA-B*15:17 = assay: as above; conditions: source organism: Francisella tularensis subsp. holarctica LVS
HLA-B*35:01 [4] = assay: IEDB peptide-MHC binding, purified MHC/competitive/fluorescence; filed as Kd, often an IC50 or EC50 that approximates it; ≥ and ≤ were set here for values at or beyond the usual limits of such assays
HLA-A*03:01 [5] = assay: as above
HLA-A*03:01 [6] = assay: IEDB peptide-MHC binding, purified MHC/competitive/fluorescence; ≥ and ≤ were set here for values at or beyond the usual limits of such assays
HLA-A*01:01 = assay: IEDB peptide-MHC binding, purified MHC/competitive/fluorescence; filed as Kd, often an IC50 or EC50 that approximates it; ≥ and ≤ were set here for values at or beyond the usual limits of such assays
HLA-A*24:02 = assay: IEDB peptide-MHC binding, purified MHC/competitive/fluorescence; ≥ and ≤ were set here for values at or beyond the usual limits of such assays
HLA-B*15:01 [7] = assay: as above
HLA-A*11:01 [8] = assay: as above
HLA-A*11:01 [9] = assay: IEDB peptide-MHC binding, purified MHC/competitive/radioactivity; filed as Kd, often an IC50 or EC50 that approximates it; ≥ and ≤ were set here for values at or beyond the usual limits of such assays; conditions: source organism: Vaccinia virus WR
HLA-A*68:01 = assay: as above; conditions: source organism: Vaccinia virus WR
HLA-A*33:01 = assay: as above; conditions: source organism: Vaccinia virus WR
HLA-A*31:01 = assay: as above; conditions: source organism: Vaccinia virus WR
HLA-A*02:01 = assay: IEDB peptide-MHC binding, purified MHC/competitive/fluorescence; ≥ and ≤ were set here for values at or beyond the usual limits of such assays
HLA-C*05:01 = assay: IEDB peptide-MHC binding, purified MHC/direct/fluorescence; filed as Kd, often an IC50 or EC50 that approximates it; ≥ and ≤ were set here for values at or beyond the usual limits of such assays
HLA-B*15:01 [10] = assay: as above; conditions: source organism: Mycobacterium tuberculosis C
HLA-A*23:01 = assay: as above
HLA-A*24:03 = assay: as above; conditions: source organism: Vibrio cholerae
HLA-B*07:02 [11] = assay: as above; conditions: source organism: Mycobacterium tuberculosis C
HLA-B*51:01 [12] = assay: IEDB peptide-MHC binding, purified MHC/competitive/fluorescence; filed as Kd, often an IC50 or EC50 that approximates it; ≥ and ≤ were set here for values at or beyond the usual limits of such assays; conditions: source organism: Mycobacterium tuberculosis H37Ra
HLA-A*02:12 = assay: IEDB peptide-MHC binding, purified MHC/direct/fluorescence; filed as Kd, often an IC50 or EC50 that approximates it; ≥ and ≤ were set here for values at or beyond the usual limits of such assays; conditions: source organism: Dengue virus 2 Thailand/16681/84
HLA-A*02:11 = assay: as above; conditions: source organism: Dengue virus 2 Thailand/16681/84
[13] = source organism: SARS coronavirus Tor2
[14] = source organism: Yellow fever virus
[15] = source organism: Vaccinia virus WR
[16] = source organism: Sudan ebolavirus
[17] = source organism: Vaccinia virus
[18] = source organism: Vaccinia virus Copenhagen
[19] = source organism: Mammarenavirus choriomeningitidis
[20] = source organism: Mycobacterium tuberculosis H37Ra
[21] = source organism: Vibrio cholerae RC385
[22] = source organism: Yersinia pestis Nepal516
[23] = source organism: Zaire ebolavirus
[24] = source organism: Lymphocytic choriomeningitis virus (strain Armstrong)
[25] = source organism: Triticum aestivum

Sequence: VPMEKLKAL
- Kd (HLA-B*51:01 [1]; [13]): 2.18 µM
- Kd (HLA-B*54:01; [13]): 11.7 µM
- Kd (HLA-B*07:02 [2]; [13]): 0.0135 µM
- Kd (HLA-B*35:01 [3]; [13]): 6.61 µM
- Kd (HLA-B*53:01; [13]): ≥ 39.4 µM

Sequence: LEDGIYGIF
- Kd (HLA-B*18:01): 0.118 µM
- Kd (HLA-B*83:01; [14]): ≥ 5 µM
- Kd (HLA-B*45:06; [14]): ≥ 5 µM
- Kd (HLA-B*15:42; [14]): ≥ 5 µM

Sequence: YGIAAHWSY
- Kd (HLA-B*57:01): 0.259 µM
- Kd (HLA-B*58:01): 0.0475 µM
- Kd (HLA-B*15:17): 0.0032 µM
- Kd (HLA-B*35:01 [4]; source organism: Francisella tularensis subsp. tularensis FSC198): ≤ 0.0001 µM

Sequence: KVHAVLTEH
- Kd (HLA-A*03:01 [5]; source organism: Brucella abortus 2308): 0.0944 µM

Sequence: RPKILSMINY
- Kd (HLA-B*51:01 [1]; [15]): 8.9 µM
- Kd (HLA-B*54:01; [15]): 2.92 µM
- Kd (HLA-B*07:02 [2]; [15]): 3.17 µM
- Kd (HLA-B*35:01 [3]; [15]): 5.74 µM
- Kd (HLA-B*53:01; [15]): 1.12 µM

Sequence: PKETFLQSP
- IC50 (HLA-A*03:01 [6]; [16]): ≥ 174 µM

Sequence: FTSFFYRY
- Kd (HLA-A*01:01; source organism: Influenza A virus (A/Fort Monmouth/1/1947-mouse adapted(H1N1))): 1.28 µM

Sequence: VDYGLVSKF
- IC50 (HLA-A*24:02; [15]): 3.51 µM
- IC50 (HLA-B*15:01 [7]; [15]): ≥ 278 µM

Sequence: LIAATAITH
- Kd (HLA-A*03:01 [5]; source organism: Rickettsia felis URRWXCal2): 0.266 µM

Sequence: GKVFAPKQK
- IC50 (HLA-A*11:01 [8]; [17]): ≥ 119 µM
- IC50 (HLA-A*24:02; [17]): 39.5 µM
- IC50 (HLA-A*03:01 [6]; [17]): ≥ 155 µM

Sequence: ALKKLIIDR
- Kd (HLA-A*11:01 [9]): ≥ 56.4 µM
- Kd (HLA-A*68:01): 6.04 µM
- Kd (HLA-A*33:01): 1.89 µM
- Kd (HLA-A*31:01): 0.00601 µM
- IC50 (HLA-A*24:02; [18]): ≥ 3610 µM
- IC50 (HLA-A*02:01; [18]): ≥ 166 µM
- IC50 (HLA-A*03:01 [6]; [18]): ≥ 83.2 µM

Sequence: LPFHRWHTMV
- Kd (HLA-B*51:01 [1]; [13]): 1.15 µM
- Kd (HLA-B*54:01; [13]): 0.0284 µM
- Kd (HLA-B*07:02 [2]; [13]): 0.462 µM
- Kd (HLA-B*35:01 [3]; [13]): 7.51 µM
- Kd (HLA-B*53:01; [13]): 18.7 µM

Sequence: LPIFSDAAL
- Kd (HLA-B*51:01 [1]; [19]): ≥ 64.1 µM
- Kd (HLA-B*54:01; [19]): 1 µM
- Kd (HLA-B*07:02 [2]; [19]): 0.0221 µM
- Kd (HLA-B*35:01 [3]; [19]): 0.0133 µM
- Kd (HLA-B*53:01; [19]): 0.0641 µM

Sequence: QLRGEELSF
- IC50 (HLA-A*02:01; [16]): ≥ 87 µM
- IC50 (HLA-B*15:01 [7]; [16]): 16.8 µM

- Kd (HLA-C*05:01; source organism: Pisum sativum): ≥ 20 µM
Sequence: YKACHNSEL

Sequence: ITHPKYRKH
- Kd (HLA-A*03:01 [5]; source organism: Vibrio vulnificus YJ016): ≥ 20 µM

Sequence: TTITGDSAY
- Kd (HLA-A*01:01; source organism: Salmonella enterica subsp. enterica serovar Typhi): 4 µM

Sequence: VLSDINAVF
- Kd (HLA-B*15:01 [10]): 0.679 µM
- Kd (HLA-C*05:01; [20]): 0.009 µM

Sequence: MMYTVSLGK
- Kd (HLA-B*83:01; [21]): ≥ 5 µM
- Kd (HLA-B*45:06; [21]): ≥ 5 µM
- Kd (HLA-A*03:01 [5]; [21]): 0.0023 µM
- Kd (HLA-B*15:42; [21]): ≥ 5 µM

Sequence: KSDDVEGRF
- Kd (HLA-C*05:01; source organism: Campylobacter upsaliensis RM3195): ≤ 0.001 µM

Sequence: VPNITISSNA
- Kd (HLA-B*51:01 [1]; [15]): ≥ 69.6 µM
- Kd (HLA-B*54:01; [15]): 0.0166 µM
- Kd (HLA-B*07:02 [2]; [15]): 4.2 µM
- Kd (HLA-B*35:01 [3]; [15]): ≥ 69.9 µM
- Kd (HLA-B*53:01; [15]): ≥ 69.9 µM

Sequence: IMLEGETKL
- IC50 (HLA-A*24:02; [18]): 47.2 µM
- IC50 (HLA-B*15:01 [7]; [18]): 42.5 µM

Sequence: HWLKVWFEW
- Kd (HLA-A*23:01; source organism: Vibrio vulnificus CMCP6): 0.121 µM

Sequence: GPQSNQRSA
- Kd (HLA-B*51:01 [1]; [13]): 8.09 µM
- Kd (HLA-B*54:01; [13]): 5.92 µM
- Kd (HLA-B*07:02 [2]; [13]): 0.365 µM
- Kd (HLA-B*35:01 [3]; [13]): 9.79 µM
- Kd (HLA-B*53:01; [13]): ≥ 78.2 µM

Sequence: GFLNEDHWF
- Kd (HLA-A*23:01; source organism: dengue virus type 2): 0.0245 µM

Sequence: RYQAQQVEW
- Kd (HLA-A*24:03): 0.0016 µM
- Kd (HLA-A*23:01; source organism: Vibrio cholerae): 0.0046 µM

Sequence: MPSEDGAEDL
- Kd (HLA-B*51:01 [1]; [19]): ≥ 69.6 µM
- Kd (HLA-B*54:01; [19]): ≥ 69.9 µM
- Kd (HLA-B*07:02 [2]; [19]): 1.86 µM
- Kd (HLA-B*35:01 [3]; [19]): 0.148 µM
- Kd (HLA-B*53:01; [19]): 0.903 µM

Sequence: YPITGVKSL
- Kd (HLA-B*07:02 [11]): 0.0739 µM
- Kd (HLA-B*51:01 [12]): ≥ 20 µM
- Kd (HLA-B*35:01 [4]; [20]): 0.0002 µM

Sequence: TSADQQSLY
- Kd (HLA-A*01:01; source organism: Influenza A virus (A/swine/Quebec/1192/1986(H1))): 0.021 µM

Sequence: QLSNTTGRL
- IC50 (HLA-A*24:02; [16]): 30.3 µM
- IC50 (HLA-A*02:01; [16]): 4.66 µM
- IC50 (HLA-B*15:01 [7]; [16]): 21.8 µM

Sequence: MVASQLARY
- Kd (HLA-A*01:01; [22]): 1.23 µM
- Kd (HLA-A*03:01 [5]; [22]): 0.907 µM
- Kd (HLA-B*35:01 [4]; [22]): 0.0009 µM

Sequence: TIAGVAGLI
- IC50 (HLA-A*24:02; [23]): 2.56 µM
- IC50 (HLA-A*02:01; [23]): 6.06 µM
- IC50 (HLA-B*15:01 [7]; [23]): ≥ 165 µM

Sequence: GPMMCPFLF
- Kd (HLA-B*51:01 [1]; [24]): 13.5 µM
- Kd (HLA-B*54:01; [24]): 0.764 µM
- Kd (HLA-B*07:02 [2]; [24]): 0.143 µM
- Kd (HLA-B*35:01 [3]; [24]): 0.767 µM
- Kd (HLA-B*53:01; [24]): 0.173 µM

Sequence: SFASLFLPK
- IC50 (HLA-A*11:01 [8]; [23]): 0.0815 µM
- IC50 (HLA-A*24:02; [23]): ≥ 114 µM
- IC50 (HLA-A*03:01 [6]; [23]): 0.677 µM

- Kd (HLA-B*51:01 [1]; [25]): ≥ 69.6 µM
- Kd (HLA-B*54:01; [25]): ≥ 69.9 µM
- Kd (HLA-B*07:02 [2]; [25]): ≥ 69.6 µM
- Kd (HLA-B*35:01 [3]; [25]): 0.323 µM
- Kd (HLA-B*53:01; [25]): ≥ 21.2 µM
Sequence: QPYPQSQPQY

Sequence: SMVNGVVRL
- Kd (HLA-A*02:12): 0.013 µM
- Kd (HLA-A*02:11): ≤ 0.001 µM
